B1: Amt03-Ammonium transporter 03 promoter/5′UTR: putative nitrogen-regulated promoter/5′UTR, SEQ ID NO: 60 (nucleic acid, listed as Prototheca moriformis)
DNA: GGCCGACAGGACGCGCGTCAAAGGTGCTGGGCGTGTATGCCCTGGTCGGCAGGTCGTTGCTGTTGCTGCGCTCGTGGTTCCGCAACCCTGATTTTGGCGTCTTATTCTGGCGTGGCAAGCGCTGACGCCCGCGAGCCGGGCCGGCGGCGATGCGGTGTCTCACGGCTGCCGAGCTCCAAGGGAGGCAAGAGCGCCCGGATCAGCTGAAGGGCTTTACACGCAAGGTACAGCCGCTCCTGCAAGGCTGCGTGGTGGACTTGAACCTGTAGGTCCTCTGCTGAAGTTCCTCCACTACCTCACCAGGCCCAGCAGACCAAAGCACAGGCTTTTCAGGTCCGTGTCATCCACTCTAAAACACTCGACTACGACCTACTGATGGCCCTAGATTCTTCATCAACAATGCCTGAGACACTTGCTCAGAATTGAAACTCCCTGAAGGGACCACCAGAGGCCCTGAGTTGTTCCTTCCCCCCGTGGCGAGCTGCCAGCCAGGCTGTACCTGTGATCGAGGCTGGCGGGAAAATAGGCTTCGTGTGCTCAGGTCATGGGAGGTGCAGGACAGCTCATGAAACGCCAACAATCGCACAATTCATGTCAAGCTAATCAGCTATTTCCTCTTCACGAGCTGTAATTGTCCCAAAATTCTGGTCTACCGGGGGTGATCCTTCGTGTACGGGCCCTTCCCTCAACCCTAGGTATGCGCGCATGCGGTCGCCGCGCAACTCGCGCGAGGGCCGAGGGTTTGGGACGGGCCGTCCCGAAATGCAGTTGCACCCGGATGCGCGGCGCCTTTCTTGCGATAATTTATGCAATGGACTGCTCTGCAAATTTCTGGGTCTGTCGCCAACCCTAGGATCAGCGGCGTAGGATTTCGTAATCATTCGTCCTGATGGGGAGCTACCGACTACCCTAATATCAGCCCGGCTGCCTGACGCCAGCGTCCACTTTTGCGTACACATTCCATTCGTGCCCAAGACATTTCATTGTGGTGCGAAGCGTCCCCAGTTACGCTCACCTGTTTCCCGACCTCCTTACTGTTCTGTCGACAGAGCGGGCCCACAGGCCGGTCGCAGCC
B2: Flap Flagellar-associated protein promoter/5′UTR: putative nitrogen-regulated promoter/5′UTR, SEQ ID NO: 57 (nucleic acid, listed as Prototheca moriformis)
DNA: CAACGACAACCAGCAGGCAACTCGGTCAGCGACCCAACACGCGAGTCAAATTGTTGCGTGTTCTTGCCTTGTCTATTTACTGTGATAGCAAGACTGTCGGTCAGTCAATACCGCGGTGCGCACGTCGGGGTGCCAAGCCTAGCAGAGCACGGGACGGCTGGTGCTGTGCGCCAGCTCAGCTCGCTTCGCGACCAATTGTAGGACCGGCAAAGTCACCAAAACATGCCAGCGGTGCGATTCAATTGGTCATGAGCTCTACAAAATTGTTTTGTGCGTCGCGCAGGTATCCAACGGCGCGGCAGAGAAAGTTTGACAGCTCTCGATTTCATCTCGGAAAAATGGGGAGAATTTATGACACACAAGTGCGCAGGCGGCCCAGGCGGCCAGCATATTCTGGCGTGACCTGGGCCGCCCACAAAATGCTTGGATGCACTCTAAAATAATTATATTTGCCATGAACAAGGGAAGAGTTACCGCACCCAGCCCTAGACTTGGGCGCCCGAGCAAGGTTACGTCAAGCCACCTTCGCCCATCGCCCAACTCCGTATTCCCCGACAGCCGCACGTGGCCCTCGCCGGAATGAACCCTGAATCGGCATCACGCCACGCGTTCGCCAATCGTTCCGCTCTCTGGCTTCATCGGCCTGCGCCTTCACGTCGTGGTCACGACAGTGCATTCATACTTCCATTTGCACCTCGGCACACACTTTTACGCATCGCCTACCCTTGCTGCGGCAGTCTAGGGTCACTTTGCAGCCATGGGACAGTGCTACACCACCGTCGGTGCGCAAAGCTATTTCAAGTGAACCGTGGGCGGAAAAAAGGAATGTACACTGTCTCAACCGACTCCTACAATTGTTTACCATGCAGATCAGAGCTCGACGGCCATCATCGAGCAGGTGTGGGGCCTTGGTGGCGCGGCGCGGGGCCCCAGGGCGTCGCAGGCATTGATGGCACTCTGAGACTTTCGCACGCGCATGAGGGACCCCATCAAGAGAAGAGTGTGTCTTTATGTCCCCATTCATGATGATGTATCTTGTGATTGTCGCAGTTTGGCAAGTTTAACCGGATCGCCGCTCCAGGTGTGGCGTGGCGGATTTTTCTAGGGGTGCTTGAGCAGTCG
B3: SulfRed Sulfite reductase promoter/5′UTR: putative nitrogen-regulated promoter/5′UTR, SEQ ID NO: 58 (nucleic acid, listed as Prototheca moriformis)
DNA: GGCCCAGGGCCCTGCGGATGGCCCACACCAGATCTAGCCTCTCTTATGCCATGCCCGCCTCGCTGCCCGTCGTATCCCCCCGCCGATCCGCGCGTAGGGGACCGCGGCCTGACCCACGCCACGAAAGAGCTTTGCTCCTCAATTTCTCGCCAACAGAACCGTATCAAACGCTCAACGCCTATCCCGAACAATCCGTATTCACACCAAATCGAGTATACCGGACTGGTTTGCCTAGTCTTGAAGGAAATGATCCCGTCCATGCTCGGAAGGGGGAGCGGGCGGAGGATCCTACTCATCTCTGAAATGGGATTGGTCCGAAGATGGGTTGGGCAAGCACGTGCCAAACCCCAGCGAGTTGCTGACGAGCAGGCTCATCCAATCCCCCGGCGAATCCTCCCTCACGCCCCGCATGCATACAAGTCCCTCCCACACGCCCCCTCCCATCCATTTTCGCCTGGTCCGAACGCGAGCGGCGTCGAGGCGGACCACTTGCTCCGCAGCGCCGTCTGGGTCTCCACCCCACAGCGGCTTTGCTGCCAGAGGCACCCCCCTTGCCCCACCTCCTCTTGCAGCC
B4: SugT Sugar transporter promoter/5′UTR: putative nitrogen-regulated promoter/5′UTR, SEQ ID NO: 59 (nucleic acid, listed as Prototheca moriformis)
DNA: CCAGGCAGGCGGTAGGGTTGCCGATTGCTTGAGCGAATTGGAAGATATAATTTTTTGTGGTGTCCCTGGACGCTGTTTGTGGCGCTCCTTTTTGGAGAAGATTGCGTGGGGGAGCTTTCCATGTACCACGCTTCCTTCTGAAAGGATTCTGGCCGAGTCCTGATGAGCCCAAAGAAAACACCTGCCTTTCAGTGCTGGCACTCTGAAAACGTCAACAGATGATTATACATGTCACAAAAGGCAGCCGATTAGGAACGGGAGCTCTGGCCGTTCGTTTGGCTGCCTGGGCTGATTGAAGTGATCCACCCTGTTCGAATGAAGGCGGTCGAGTCGAATTATCGACCGGAGCTGTCGGGAAGGCGTCCGGGGCAGAGTGAGGTGCTGCGGCCTGGTTGTCGTTCAAAAAGACCCCGGTAGCCCAACAATCACGAACGAAAGGAATATAATTGCTTGCATACTATACATTCAGTTTCTATGTGGCGGGTAGACAAGTCTCATGGGCTTCTAAAGGCTGTCCCTTGAAGGCTACTTATAAAAACTTGCTGCGCCATGGCACGGATCGCGCTTGCGCAGGCTGCAACCCTGCGCGCAAGGTCAAATACACAGCAAAAGATACTAACAGAATTTCTAAAAACATTTAAATATTTGTTTCGACCAGCCAATTGTGGTCGTAGGCACGCAAAAGACTTTGTTTTGCGCCCACCGAGCATCCACGCTGGCAGTCAAGCCAGTCCGATGTGCATTGCGTGGCAGCATCGAGGAGCATCAAAAACCTCGTGCACGCTTTTCTGTCAATCATCATCAACCACTCCACCATGTATACCCGATGCATCGCGGTGCGCAGCGCGCCACGCGTCCCAGACCCGCCCAAAAACCCAGCAGCGGCGAAAGCAAATCTTCACTTGCCCGAAACCCCGAGCAGCGGCATTCACACGTGGGCGAAAACCCCACTTGCCCTAACAGGCGTATGTCTGCTGTCACGATGCCTGACAACGGTATTATAGATATACACTGATTAATGTTTGAGTGTGTGCGAGTCGCGAATCAGGAATGAATTGCTAGTAGGCACTCCGACCGGGCGGGGGCCGAGGGACCA

Tested on: Prototheca moriformis (UTEX 1435)
Test: cDNA abundance by real-time RT-PCR under nitrogen depletion
Type: cell-based
Conditions: after 24 hours of culture in low nitrogen medium
Protocol: A cDNA library was generated from Prototheca moriformis (UTEX 1435) using standard techniques. The Prototheca moriformis cells were grown for 48 hours under nitrogen replete conditions. […] After about 24 hours in culture, the nitrogen supply in the media was completely depleted. The collected samples were immediately frozen using dry ice and isopropanol. Total RNA was subsequently isolated from the frozen cell pellet samples and a portion from each sample was held in reserve for RT-PCR studies. The rest of the total RNA harvested from the samples was subjected to polyA selection. Equimolar amounts of polyA selected RNA from each condition was then pooled and used to generate a cDNA library in vector pcDNA 3.0 (Invitrogen). Roughly 1200 clones were randomly picked from the resulting pooled cDNA library and subjected to sequencing on both strands. Approximately 68 different cDNAs were selected from among these 1200 sequences and used to design cDNA-specific primers for use in real-time RT-PCR studies. RNA isolated from the cell pellet samples that were held in reserve was used as substrate in the real time RT-PCR studies using the cDNA-specific primer sets generated above. This reserved RNA was converted into cDNA and used as substrate for RT-PCR for each of the 68 gene specific primer sets. […] As discussed in the specification, nitrogen depletion/limitation is a known inducer of lipogenesis in oleaginous microorganisms. Fold increase refers to the fold increase in cDNA abundance after 24 hours of culture in low nitrogen medium.

Molecule | Fold increased (cDNA abundance)
B1 | 10.1
B2 | 4.92
B3 | 10.91
B4 | 17.35

From patent US10100341B2, “Tailored oils produced from recombinant oleaginous microorganisms” (Corbion Biotech, Inc., priority 2011, dated 2018)
